Positions count from the first letter of the chain named.

Data set [1] deals with T1, Recombinant human pigment epithelium derived factor (rPEDF).
T1 chain: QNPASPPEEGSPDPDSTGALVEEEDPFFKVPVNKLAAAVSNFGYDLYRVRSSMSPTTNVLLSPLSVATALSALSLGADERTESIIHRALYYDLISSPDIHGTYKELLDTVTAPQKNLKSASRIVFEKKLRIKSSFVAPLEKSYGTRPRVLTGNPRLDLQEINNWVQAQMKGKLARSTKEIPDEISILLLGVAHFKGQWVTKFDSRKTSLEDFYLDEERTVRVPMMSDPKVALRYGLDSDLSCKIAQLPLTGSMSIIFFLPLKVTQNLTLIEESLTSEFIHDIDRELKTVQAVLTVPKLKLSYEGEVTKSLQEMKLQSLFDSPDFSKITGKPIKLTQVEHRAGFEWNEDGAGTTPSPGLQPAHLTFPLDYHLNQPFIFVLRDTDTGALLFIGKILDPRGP

Data set [2] addresses T2, PEDF AAE variant (S24,114A, 227E).
T2 chain: T1 chain with S5A, S95A, S208E

For data set [3], the target named is T3, PEDF EEE variant (S24,114, 227E).
T3 chain: T1 chain with S5E, S95E, S208E

Data set [4] deals with T4, PEDF EEA variant (S24,114E, 227A).
T4 chain: T1 chain with S5E, S95E, S208A

The target of data set [5] is T5, PEDF S227E variant.
T5 chain: T1 chain with S208E

The target of data set [6] is T6, PEDF S227A variant.
T6 chain: T1 chain with S208A

Data set [7] concerns the target T7, PEDF AAA variant (S24,114, 227A).
T7 chain: T1 chain with S5A, S95A, S208A

Data set [8] deals with T8, PEDF purified from human plasma (plPEDF).
T8 chain: T1 chain

B1: Recombinant human CK2 (casein kinase CK2) (protein)
chain: MSGPVPSRARVYTDVNTHRPREYWDYESHVVEWGNQDDYQLVRKLGRGKYSEVFEAINITNNEKVVVKILKPVKKKKIKREIKILENLRGGPNIITLADIVKDPVSRTPALVFEHVNNTDFKQLYQTLTDYDIRFYMYEILKALDYCHSMGIMHRDVKPHNVMIDHEHRKLRLIDWGLAEFYHPGQEYNVRVASRYFKGPELLVDYQMYDYSLDMWSLGCMLASMIFRKEPFFHGHDNYDQLVRIAKVLGTEDLYDYIDKYNIELDPRFNDILGRHSRKRWERFVHSENQHLVSPEALDFLDKLLRYDHQSRLTAREAMEHPYFYTVVKDQARMGSSSMPGGSTPVSSANMMSGISSVPTPSPLGPLAGSPVIAAANPLGMPVPAAAGAQQ
Take B1: the “in vitro phosphorylation by CK2 ([γ32P]-ATP, SDS-PAGE, autoradiography)” value in data set [1] is “the phosphorylation of the plPEDF by CK2 was significantly lower than CK2 phosphorylation of the rPEDF”; in data set [5] it was “both readily phosphorylated by CK2”; in data set [6], “both readily phosphorylated by CK2”; in data set [8], “the phosphorylation of the plPEDF by CK2 was significantly lower than CK2 phosphorylation of the rPEDF”. Besides, the “in vitro phosphorylation by CK2” value in data set [2] is “The AAE and the AAA variants almost completely abolished CK2 phosphorylation”; in data set [3] it was “the triple mutants EEE and EEA were readily phosphorylated by CK2”; in data set [4] it was “the triple mutants EEE and EEA were readily phosphorylated by CK2”; in data set [7], “The AAE and the AAA variants almost completely abolished CK2 phosphorylation”.
